# Laboratory results reported in the supplement of paper PMC9233669.
# This sample holds only a part of the variants without activity.
# Experiments:
# biotinyl-Phe-oxazolone = experiment: self-aminoacylation, catalytic enhancement (BFO) (fold over background); higher = more active; k-Seq, kA / k0A0; sequences stand for … in GGGAAUGGAUCCACAUCUACGAAUUC…UUCACUGCAGACUUGACGAAGCUG
# How it was run: (§1)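 Catalytic enhancement equals the median kA over the uncatalyzed rate, the latter read from the low-activity peak of a bimodal Gaussian fit. Values of kA came from fitting each sequence's fraction reacted to a pseudo-first-order model, with 1000 bootstraps. Reacted RNA was captured with streptavidin and quantified by triplicate qPCR and Illumina sequencing after 90 minutes at room temperature with 2–1250 μM biotinyl-aminoacyl-oxazolone and 0.43 μM mutagenized RNA pools bearing a 21-nt variable region.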
# biotinyl-Ile-oxazolone = experiment: self-aminoacylation, catalytic enhancement (BIO) (fold over background); higher = more active; k-Seq, kA / k0A0; sequences stand for … in GGGAAUGGAUCCACAUCUACGAAUUC…UUCACUGCAGACUUGACGAAGCUG
# How it was run: as §1
# biotinyl-Met-oxazolone = experiment: self-aminoacylation, catalytic enhancement (BMO) (fold over background); higher = more active; k-Seq, kA / k0A0; sequences stand for … in GGGAAUGGAUCCACAUCUACGAAUUC…UUCACUGCAGACUUGACGAAGCUG
# How it was run: as §1
# biotinyl-Val-oxazolone = experiment: self-aminoacylation, catalytic enhancement (BVO) (fold over background); higher = more active; k-Seq, kA / k0A0; sequences stand for … in GGGAAUGGAUCCACAUCUACGAAUUC…UUCACUGCAGACUUGACGAAGCUG
# How it was run: as §1
# biotinyl-Leu-oxazolone = experiment: self-aminoacylation, catalytic enhancement (BLO) (fold over background); higher = more active; k-Seq, kA / k0A0; sequences stand for … in GGGAAUGGAUCCACAUCUACGAAUUC…UUCACUGCAGACUUGACGAAGCUG
# How it was run: as §1
# biotinyl-Trp-oxazolone = experiment: self-aminoacylation, catalytic enhancement (BWO) (fold over background); higher = more active; k-Seq, kA / k0A0; sequences stand for … in GGGAAUGGAUCCACAUCUACGAAUUC…UUCACUGCAGACUUGACGAAGCUG
# How it was run: as §1
Sequence,self-aminoacylation (biotinyl-Phe-oxazolone),self-aminoacylation (biotinyl-Ile-oxazolone),self-aminoacylation (biotinyl-Met-oxazolone),self-aminoacylation (biotinyl-Val-oxazolone),self-aminoacylation (biotinyl-Leu-oxazolone),self-aminoacylation (biotinyl-Trp-oxazolone)
AUUCACCUGGGUCAGCGGGUG [Fam2.2 aminoacylation ribozyme variant],36.7,4.33,5.26,4.26,6.66,4.72
AAAUUAGCUAAUAGUCGCAAG [Fam3.1 aminoacylation ribozyme variant],2.21,2.36,1.85,1.81,1.92,3.09
CUACUGCCAACAAUCGGUCUG [Fam1A.1 aminoacylation ribozyme variant],0.775,0.744,0.773,0.744,0.64,0.531
AUUACCCUGGUAAUCGAGUCA [Fam2.1 aminoacylation ribozyme variant],0.569,0.825,0.902,0.838,0.783,0.473
CCACACUUCACGCAAUUGGUC [Fam1B.1 aminoacylation ribozyme variant],0.859,0.951,0.667,1.03,0.957,0.792
AUUACCCUGGUCAUAGAGAGA [Fam2.1 aminoacylation ribozyme variant],0.605,0.947,0.983,0.717,0.798,0.77
AUUACCCUGGUCAUCAAGUUA [Fam2.1 aminoacylation ribozyme variant],0.737,0.676,0.684,0.681,0.646,0.328
CUACUUUCAACAAUCGGUCUG [Fam1A.1 aminoacylation ribozyme variant],14.5,0.99,0.895,1.06,1.09,10.3
AUUCCCCUGGUCAUCGAGUGU [Fam2.1 aminoacylation ribozyme variant],15.2,2.39,3.09,2.61,3.28,3.8
AUAACCCUGGUUAUCGAGUGA [Fam2.1 aminoacylation ribozyme variant],38.8,3.74,8.37,3.44,8.11,8.28
AUUCACCUGGGUCAUCGGGGG [Fam2.2 aminoacylation ribozyme variant],21.4,4.25,4.26,4.1,5.65,3.71
AUUCACCUAGGUCGUCGGCUG [Fam2.2 aminoacylation ribozyme variant],4.94,1.62,2.16,1.97,2.55,1.63
AAGUUUGAUAAUCGUCGCAAG [Fam3.1 aminoacylation ribozyme variant],1.99,1.54,1.25,1.13,1.26,1.43
CCACACUUAAAGAAAUCGGUC [Fam1B.1 aminoacylation ribozyme variant],0.562,0.754,0.734,0.785,0.749,0.679
AACUUUGCAAAUAGUCGCAAG [Fam3.1 aminoacylation ribozyme variant],4.66,2.3,1.96,1.94,2.8,1.99
ACACACUUCAACCAAUCGGUC [Fam1B.1 aminoacylation ribozyme variant],32.5,1.69,1.65,1.56,2.16,26.6
CUGCUUCAAACAAUCGGUAUG [Fam1A.1 aminoacylation ribozyme variant],75.4,1.29,1.56,1.33,2.5,40.2
AUCACCCUGAUCAUCGAGUGA [Fam2.1 aminoacylation ribozyme variant],62.3,4.86,10.8,4.32,10.2,10.9
AUCAACCUGGUCAUCGAGUGA [Fam2.1 aminoacylation ribozyme variant],43.5,5.12,10,4.81,11.9,9.87
CCACACUUGAAGCAACCGGUC [Fam1B.1 aminoacylation ribozyme variant],0.953,0.886,0.694,1.04,0.699,0.938
CCACACUUCAAGCAACCAGUC [Fam1B.1 aminoacylation ribozyme variant],1.26,1.08,1.04,0.941,0.725,0.79

Sequence,self-aminoacylation (biotinyl-Phe-oxazolone),self-aminoacylation (biotinyl-Ile-oxazolone),self-aminoacylation (biotinyl-Met-oxazolone),self-aminoacylation (biotinyl-Val-oxazolone),self-aminoacylation (biotinyl-Leu-oxazolone),self-aminoacylation (biotinyl-Trp-oxazolone)
AAGUUUGCUAGUAGUAGCAAG [Fam3.1 aminoacylation ribozyme variant],1.62,1.24,0.808,1.18,1,1.2
CCACACUUCAAGCUAUCGGUA [Fam1B.1 aminoacylation ribozyme variant],0.934,1.16,0.992,1.18,1.28,1.29
UUUACCCAGGUCAUCGAGUGA [Fam2.1 aminoacylation ribozyme variant],21.9,3.49,5.36,3.55,5.06,6
CUACUUCAGUCAAUCGGUCUG [Fam1A.1 aminoacylation ribozyme variant],0.793,0.565,0.848,0.807,0.667,0.463
UCACACUUCAAGCAGUCGGUC [Fam1B.1 aminoacylation ribozyme variant],1.06,0.827,0.968,0.972,0.879,0.901
AUUCACCUGGGUCAACGGGUG [Fam2.2 aminoacylation ribozyme variant],22.8,2.41,3.9,2.56,4.25,3.21
UCACACUUCAAGCAAUCCGUC [Fam1B.1 aminoacylation ribozyme variant],1.15,0.955,0.667,1.25,0.591,1.01
AUUCACCUACCUCAUCGGGUG [Fam2.2 aminoacylation ribozyme variant],22.3,2.21,2.69,2.33,4.3,2.79
ACACACUUCAAGCAAGCGGUC [Fam1B.1 aminoacylation ribozyme variant],2.18,1.6,1.33,1.73,1.52,1.74
CUAUUUCAAAUAAUCGGUCUG [Fam1A.1 aminoacylation ribozyme variant],3.5,0.912,0.849,0.816,0.814,2.2
CUACUUAAAACAAUCGGUUUG [Fam1A.1 aminoacylation ribozyme variant],0.655,0.672,0.718,0.627,0.621,0.596
AAGUAUGCUAAUAGUCUCAAG [Fam3.1 aminoacylation ribozyme variant],8.35,1.43,1.55,1.31,1.6,2.69
AUUCAGCUAGAUCAUCGGGUG [Fam2.2 aminoacylation ribozyme variant],26.3,2.71,4.04,2.85,4.61,3.9
AAUUGUGCUAAUAGUCGCAAG [Fam3.1 aminoacylation ribozyme variant],3.05,1.93,2.02,1.75,2.18,2.44
AAGUCUGCUUAUAGUCGCAAG [Fam3.1 aminoacylation ribozyme variant],1.42,0.895,1.18,0.822,1.25,0.87
AAGUGUGCUAAUAGUAGCAAG [Fam3.1 aminoacylation ribozyme variant],1.65,1.27,1.02,1.33,1.21,1.6
CUACUUCAAACAAUCGGACUC [Fam1A.1 aminoacylation ribozyme variant],5.7,0.675,0.563,0.7,0.624,2.57
AGUCACUUAGGUCAUCGGGUG [Fam2.2 aminoacylation ribozyme variant],46.1,4.65,5.12,4.36,6.96,5.93
AUUACCCUGGGCGUCGAGUGA [Fam2.1 aminoacylation ribozyme variant],1.06,1.04,1.73,1.44,1.3,1.04
AUUACCCUGGUCAUAGACUGA [Fam2.1 aminoacylation ribozyme variant],0.776,0.874,0.586,0.991,0.739,0.537
AUUCAUCUAGGGCAUCGGGUG [Fam2.2 aminoacylation ribozyme variant],21.4,2.81,3.45,2.97,4.32,2.7
